According to patent US20240002497A1 (Merck Sharp & Dohme, published 2024):
Read-outs that look alike come from different tables or passages of the source. Each block holds one binder with its values, some of them ahead of it.

Assays:
huNav1.7α + β1 [1] = target: T1, huNav1.7α + β1 (human); assay: binding FACS, HEK
T1 construct: HEK293 cells; also called huNav1.7-beta1; huNav1.7-β1

huNav1.7α = target: T2, huNav1.7α (human, UniProt Q15858 1-1988); assay: binding FACS, HEK
T2 construct: HEK cells expressing the α subunit without β subunits; also called huNav1.7 (alpha-subunit); Human Nav1.7α

rhNav1.7α + β1-β2-β3 [2] = target: rhNav1.7α + β1-β2-β3 (rhesus monkey); assay: cell-based or functional assay
huNav1.7α + β1 [3] = target: T1, huNav1.7α + β1; assay: cell-based or functional assay
ratNav1.7α [4] = target: T3, ratNav1.7α (rat, UniProt O08562 1-1984); assay: cell-based or functional assay
T3 sequence (O08562 whole entry): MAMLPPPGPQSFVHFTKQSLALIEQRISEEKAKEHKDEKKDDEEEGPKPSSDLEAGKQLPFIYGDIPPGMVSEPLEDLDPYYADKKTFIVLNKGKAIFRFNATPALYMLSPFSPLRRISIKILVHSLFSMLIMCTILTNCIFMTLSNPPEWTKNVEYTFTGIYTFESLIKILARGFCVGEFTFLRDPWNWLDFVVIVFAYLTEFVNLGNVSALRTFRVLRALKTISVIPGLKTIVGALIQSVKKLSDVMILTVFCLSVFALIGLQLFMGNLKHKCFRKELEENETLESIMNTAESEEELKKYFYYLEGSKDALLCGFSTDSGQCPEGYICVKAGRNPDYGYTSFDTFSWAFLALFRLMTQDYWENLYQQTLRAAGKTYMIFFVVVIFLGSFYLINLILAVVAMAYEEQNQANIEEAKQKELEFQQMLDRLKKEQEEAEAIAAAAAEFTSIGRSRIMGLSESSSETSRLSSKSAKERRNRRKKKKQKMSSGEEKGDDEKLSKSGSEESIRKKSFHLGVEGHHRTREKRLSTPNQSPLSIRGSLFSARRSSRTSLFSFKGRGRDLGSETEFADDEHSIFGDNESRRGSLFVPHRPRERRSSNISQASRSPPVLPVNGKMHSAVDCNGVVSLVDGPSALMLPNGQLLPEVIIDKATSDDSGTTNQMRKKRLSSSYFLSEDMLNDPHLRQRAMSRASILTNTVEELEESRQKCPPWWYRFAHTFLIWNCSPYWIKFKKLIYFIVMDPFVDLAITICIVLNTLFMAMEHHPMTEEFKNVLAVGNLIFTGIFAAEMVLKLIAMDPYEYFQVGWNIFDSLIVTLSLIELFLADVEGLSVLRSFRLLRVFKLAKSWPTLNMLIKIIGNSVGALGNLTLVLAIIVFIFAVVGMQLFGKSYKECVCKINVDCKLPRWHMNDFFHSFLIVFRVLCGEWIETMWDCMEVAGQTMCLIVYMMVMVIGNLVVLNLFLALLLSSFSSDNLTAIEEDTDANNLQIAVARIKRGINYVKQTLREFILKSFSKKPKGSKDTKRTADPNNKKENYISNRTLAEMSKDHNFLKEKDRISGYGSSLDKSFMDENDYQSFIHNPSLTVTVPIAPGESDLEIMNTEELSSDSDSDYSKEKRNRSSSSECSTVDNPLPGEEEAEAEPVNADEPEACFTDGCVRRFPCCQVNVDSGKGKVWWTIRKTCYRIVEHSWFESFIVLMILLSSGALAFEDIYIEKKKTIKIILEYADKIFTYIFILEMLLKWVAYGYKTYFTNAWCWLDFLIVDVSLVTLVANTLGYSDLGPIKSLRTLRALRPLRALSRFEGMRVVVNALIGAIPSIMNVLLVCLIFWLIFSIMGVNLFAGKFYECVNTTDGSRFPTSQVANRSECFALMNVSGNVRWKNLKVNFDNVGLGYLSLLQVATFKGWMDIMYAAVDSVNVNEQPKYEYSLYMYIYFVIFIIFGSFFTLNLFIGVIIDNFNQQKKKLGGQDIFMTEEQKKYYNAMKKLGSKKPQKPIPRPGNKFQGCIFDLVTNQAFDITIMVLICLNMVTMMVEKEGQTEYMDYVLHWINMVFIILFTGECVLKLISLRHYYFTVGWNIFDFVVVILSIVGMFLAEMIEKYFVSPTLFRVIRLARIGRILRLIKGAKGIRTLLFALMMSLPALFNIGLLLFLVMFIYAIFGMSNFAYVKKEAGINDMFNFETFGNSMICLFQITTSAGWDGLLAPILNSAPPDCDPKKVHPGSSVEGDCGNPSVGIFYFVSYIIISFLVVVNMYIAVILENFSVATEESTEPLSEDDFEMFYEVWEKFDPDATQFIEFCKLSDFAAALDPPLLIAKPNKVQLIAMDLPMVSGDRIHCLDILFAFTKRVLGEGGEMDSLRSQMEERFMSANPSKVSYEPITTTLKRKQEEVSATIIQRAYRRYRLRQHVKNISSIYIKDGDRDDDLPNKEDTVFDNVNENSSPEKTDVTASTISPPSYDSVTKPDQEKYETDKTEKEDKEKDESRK

rhNav1.7α + β1-β2-β3 [5] = target: rhNav1.7α + β1-β2-β3 (rhesus monkey); assay: cell-based or functional assay; remark: listed apart in the source
huNav1.7α + β1 [6] = target: T1, huNav1.7α + β1; assay: cell-based or functional assay; remark: listed apart in the source
ratNav1.7α [7] = target: T3, ratNav1.7α; assay: cell-based or functional assay; remark: listed apart in the source
rhNav1.7α + β1-β2-β3 [8] = target: rhNav1.7α + β1-β2-β3 (rhesus monkey); assay: cell-based or functional assay; remark: listed apart in the source
huNav1.7α + β1 [9] = target: T1, huNav1.7α + β1; assay: cell-based or functional assay; remark: listed apart in the source
[10] = target: T4, huNav1.7α + β1 (human Nav1.7α co-expressed with Navβ1) (human, UniProt Q15858 1-1988; Q07699 19-218); assay: cell-based or functional assay
[11] = target: T5, huNav1.7α (human Nav1.7 alpha subunit, expressed without β subunits) (human, UniProt Q15858 1-1988); assay: binding FACS, HEKa cells
T5 construct: also called HEK293 human Nav1.7α; HEKa Nav1.7α

[12] = target: T5, huNav1.7α (human Nav1.7 alpha subunit, …); assay: binding FACS, HEKa cells; remark: listed apart in the source
[13] = target: T4, huNav1.7α + β1 (human Nav1.7α …); assay: binding FACS, HEKa/β1 cells
[14] = target: T4, huNav1.7α + β1 (human Nav1.7α …); assay: binding FACS, HEKa/β1 cells; remark: listed apart in the source
[15] = target: T6, huNav157 chimera 14 + β1-β2-β3 (human); assay: binding FACS, HEK FlpIn cells
T6 construct: Chimera of huNav1.7α (extracellular loops and transmembrane helices) and huNav1.5α (intracellular loops); also called Nav157ch14-β1-β2-β3; huNav157 chimera 14-beta1-beta2-beta3

huNav157 chimera 14 [16] = target: T7, huNav157 chimera 14 (human); assay: binding FACS, HEK FlpIn cells
T7 construct: Chimera without β subunits; also called Nav157ch14

[17] = target: T6, huNav157 chimera 14 + β1-β2-β3; assay: binding FACS, HEK FlpIn cells; remark: listed apart in the source
huNav157 chimera 14 [18] = target: T7, huNav157 chimera 14; assay: binding FACS, HEK FlpIn cells; remark: listed apart in the source
[19] = target: T5, huNav1.7α (human Nav1.7 alpha subunit, …); assay: binding FACS, huNav1.7α without β; minus = lower than reference
[20] = target: T5, huNav1.7α (human Nav1.7 alpha subunit, …); assay: binding FACS, huNav1.7α without β; minus = weaker than reference

EC50 (huNav1.7α + β1 [1]): 9 nM
EC50 (huNav1.7α): 11 nM
Qpatch IC50 [M], HEK cells (rhNav1.7α + β1-β2-β3 [2]): 8e-09 M
Qpatch IC50 [M], HEK cells (huNav1.7α + β1 [3]): 1.3e-08 M
QPatch electrophysiology IC50 [M], HEK cells (ratNav1.7α [4]): 2.1e-08 M
QPatch electrophysiology IC50 [M], HEK cells (rhNav1.7α + β1-β2-β3 [5]): 8e-09 M
Human SA ratio of QPatch IC50 (huNav1.7α + β1 [6]): 2
QPatch electrophysiology IC50 [M], HEK cells (huNav1.7α + β1 [6]): 1.3e-08 M
QPatch electrophysiology IC50 [M], HEK cells, + 10 µM human SA (huNav1.7α + β1 [6]): 2.6e-08 M
Qpatch IC50 (ratNav1.7α [7]): 21 nM
Qpatch IC50 (rhNav1.7α + β1-β2-β3 [8]): 8 nM
Qpatch IC50 (huNav1.7α + β1 [9]): 13 nM
B1: 69AVB (Fc fusion)
chain: EVQLVESGGGLAQPGGSLRLSCAASGPVFNINRMAWYRRAPGKQRELVAYVTPTGDISYTDSVKGRFTISRDGSKRWSLQMNSLTPEDTAVYYCRALLQPDSYSNTRTYWGQGTLVTVSS
notes: also called F010301656-5GS-Fc; F10301656* (ISVD with human IgG1 Fc); not shown: 5GS linker; human IgG1 Fc

IC50 [M], electrophysiology on HEK huNav1.7α + β1 cells [10]: 3.2e-08 M
Bmax [11]: 100%
EC50 [11]: 1.9 nM
EC50 [12]: 1.9 nM
EC50 [13]: 2 nM
EC50 [14]: 2 nM
EC50 [15]: 2.3 nM
Bmax (huNav157 chimera 14 [16]): 100%
EC50 (huNav157 chimera 14 [16]): 2.7 nM
EC50 [17]: 2.3 nM
EC50 (huNav157 chimera 14 [18]): 2.7 nM
B2: F010302391 (VHH)
VHH: EVQLVESGGGVVQPGGSLRLSCAASGRILRIGYMRWYRQAPGKQREFVARITGGSATGYADSVKGRFTISRDNAKNTVYLQMNSLRPEDTALYYCEALVTASVRGGSIHSGTYWGQGTLVTVSS
notes: also called F0103387G05(L11V, A14P, D23A, H37Y, G40A, A41P, D53G, D54G, D58G, N82bS, N83R, V89L, R105Q)-FLAG3-HIS6

Bmax [11]: 25%
EC50 [11]: 89 nM
EC50 [13]: 3.2 nM
EC50 [15]: 3.4 nM
Bmax (huNav157 chimera 14 [16]): 30%
EC50 (huNav157 chimera 14 [16]): 210 nM
Bmax fold change compared to reference [19]: -4 fold
EC50 fold change compared to reference [20]: -20 fold
B3: F010301648 (VHH)
VHH: EVQLVESGGGVVQPGGSLRLSCDASGRILRIGYMRWHRQGAGKQREFVARITDDSATDYADSVKGRFTISRDNAKNTVYLQMNSLRPEDTALYYCNALVTASVRGGSIHSGTYWGQGTLVTVSS
notes: also called F0103387G05(L11V, A14P, N82bS, N83R, V89L, E93N, R105Q); E93N
